From a protein production outcome set (Wang et al. 2014)

Test: label from the status in PepcDB records

Sequence	protein production
MPIRRRTSGNDRKNIGPRMEVARVREPFSFGVPERRRFAMQFGYDMRPSFWQEVRSNSHLVIAAVGTAALLGVAAVALWLALPTSERQAAASQEQSIPSIPVKTMKIVPAGTTVAAATVPQPARKSDQVSPTVAVAKANIQALAANDPRWTEAQPKTASAAPDQAAAPSQAANQAEPAPNKPAVTAAFAPSATDTDAASELAKVAAPAPAAGSNPDGAKTAAIPEVQPQAPEQQPTASDDGSKARAKPPKVAAAGNGRILRPVTMRSGPKKNAAAIGTVPARTSVQVMICKQWCQIVYNGKTGWVYKSYIKTGG	failed
MPISEDLKQAIRQRARYICEYCHSPERLSANRFTIDHVIPKSLGGSDAFNNLALACRRCNERRYNFVASIDPQTKTIVAIFNPRQQNWAEHFIWTNRGIIIQGTTTTGRATCIRLDLNDTRYPEEDSIQETRRFWLKTGLHPPIDDPCKNLEHHHHHH	not failed
MPIVARSSRVPWVIKYRPKRVEDVVNQDQAKKILVPWFKAWLEGRKPDKRAALLYGPPGVGKTSLVEAIASEFNLEMIELNASDYRRRSDIERIVGAASRKRSMFKRGVVILLDEVDGINPREDAGGIEALLSVIKTTENPIVMTANDPWKDFLRPLREVSLMVEFRPLTLTHIVAVLQRICEAERIECEREALRYIAERSEGDLRSAINDLQAVAEGYGRVTLTLAREIVRGREKSIDIWRTLNQVFYKPRQAWMARKAVSQSEKDYEELIAWINDNIPRKYGEPSDLFRAFDALARATVFLGRAKFGGNWELLSYVFDLMGPGVAYARMEGEVLKTRYSYPEKIRMMAQLRGVRETREKLAEVLAKRLLMSRRAVKTEVLPILHYIFRSSRDPTKPAMIALEYGLTEKMVELLAGQRKSEILKAMATVKKARLGEKPLEPQEAKARRRGEKASRDEGRKAGKRERKGVGLDFFLGEQ	failed
MPKAINYKANSVVYFSGDFDERVFLLNTGSIALTSIDIETGEQVTDYIKTGEFFGVKSALGNYPREESAMVLTDSIVYSFTSKEFEAFAQTNTRIILQMIKVFSRQLRTIHKQLASLLDSEEEKNPEEGLFNVMNAFYSSQHYKAAGQVGTRYKAIYPNGKYISQVDQIVRSTAEVAGRSFGNAEGHNNDAVLAHHEKPAAVTDGTVHLAYNKAEDLFEKGEFEAAYDQYHAVIEAGAGDEITDNAYIGAGKSLHSQKEYVRCLQLLTGFISQHPKSSKIGDALMYLGMCYMDMERPDKAIAFFDKAAILSGADIIGKIRELQKECSSRLQGA	failed
MPKIPITLITGFLGSGKTSFLSEYLNQTDHQGVALIINEIGQAALDQRILSVQYCGEKMLYLNAGCVCCNKRLDLVESLKATLNNYEWHGEILRRIIIETTGLANPAPILWTILSDTFLGVHFEIQSVVACVDALNAREHLTNNEAKEQIVFADSVLLTKTDLQNDSAALTKLKERIQALNPSAEIFDKRAIDYESLFSRKNRARNFMPLEHHHHHH	failed
MPKKAREWGALDVKRAAHPGDGANVWHAVGGVAGLLLQITPTGAKSWLLRTTVAGTRRAMGLGSYPEVGLAEARERAREAKRKIAAGVDPIEERKATRAALAAAQRRSLTFADAADKWIKAKLSDRPEKSQKAVRATLTAYSFPEIGALTVQELTPQDVVRALNTIWTAKPDTATKMRGYLEAILSWATVSGYRTGDNPARWAGNLKELLPAPSVVAKGRAGNFPAVPVARLADWWEELGQREGMGATALRFAALTAARSGEVRGALWSEVDLDAALWVVPGARMKMGREHRVPLSGPAVALLRGLPRLAGTGDLIFPGPRGGILSDMSVSAVMRRMQEDAETEAKMAGRPVSAAGWRDTRTGRPAVPHGLRSSFRDWAAEVGYDRDMAEIALAHLVGSEVERAYRRSDMLERRRAMMERWADVLAGRSGASVVEFRRA	failed
MPKNKGKGGKNRKRGKNEADDEKRELIFKEDGQEYAQVLRMLGNGRCEAMCIDGTKRLCHIRGKMHKKVWIAAGDIVLVGLRDYQDDKADVILKYMSDEARLLKAYGELPENTRLNEGIVGDLEDDDDNNDDDYVEFEDEDIDRI	failed
MPLCLRNAQQDDTQRLSQIARQTFALACPPDTPATEIEAFIQENLLPEHFSALLEAPGKQLRVLLDDNRVIGYSLVNLHPQDLGVAGADGIAELTRCYLDAAHHGSGAAQFLLAQTLAQQPGPLRLTVNEHNARAIRFYQRNGFVRVGETLFPCGADLHRDWVMLRR	failed
MPLGHLFDKSYDEMHCNQKNWEMAERKLMEDAVQSALSKQNLKKEDIDIFLAGDLLNQNVTANYVARHLKIPFLCLFGACSTSMESIAISSALIDGGFAKRALAATSSHNATAERQFRYPTEYGGQKPGTATSTVTGSGAVVLSQQPGGIKITSATVGRVIDLGITDSQDMGSAMAPAAADTIKQHLEDLGRTPDDYDLILTGDLSGVGSPILKDLLKEEGINVGTKHNDCGLMIYTPDQQVFAGGSGCACSAVVTFAHIFKEIEAGRLNRVLVVATGALLSPTIIQQKESIPCIAHGVVFERAERGNALEHHHHHH	not failed
MPLHNLTRFPRLEFIGAPTPLEYLPRFSDYLGREIFIKRDDVTPMAMGGNKLRKLEFLAADALREGADTLITAGAIQSNHVRQTAAVAAKLGLHCVALLENPIGTTAENYLTNGNRLLLDLFNTQIEMCDALTDPNAQLEELATRVEAQGFRPYVIPVGGSNALGALGYVESALEIAQQCEGAVNISSVVVASGSAGTHAGLAVGLEHLMPESELIGVTVSRSVADQLPKVVNLQQAIAKELELTASAEILLWDDYFAPGYGVPNDEGMEAVKLLARLEGILLDPVYTGKAMAGLIDGISQKRFKDEGPILFIHTGGAPALFAYHPHV	failed
MPLKRLGHRVLGLVLAAMLLYGGLAPPVRNFFALPWQQRLPAAAPISLPWELPPGLARQVEVKVNSGDWSRATTGDFPRWLQLQLKLFGFIPLKNITIQLVQPVDVSPGGQAIGVFLKTEGVQVVGQAAIVDERGNKVYLARQAGLETGDAIIAIDGQKVTSDQEVANLINAAGQANRQARITVKREGHLLTLNIHPRYCQETGRYRIGVYVRDSTAGVGTLTFYDQNKGVFGALGHVVTGSDGQTAMDISGGRIVAAAIQGIHQGYRGQPGEKLGVFLENGQFSGTIQKNTIVGIFGTITGKLPGNKEIPVALADTVHPGPAEILTVIEGEKVESFQVEIERVMPHQRASGKGLVLRITDPRLLAVTGGIIQGMSGSPIIQDGQLAGAVTHVFINDPTRGYGVLAEWMLQETELVPKDKARGATVETPGSFLFVVFCVG	failed
MPLPPDITFDSLALIKMHSQNMKRILEVTLAKFTVNLSIVTVYRYLTARAYLKKNIEAEFEILKDIYNIVPLLDDIAIKAAQIEANLIKKEITLDMEDIITATTAIYTNSLLVTDDPKRYEPIRRFGLDTMPLDKFIKEVELMVEKELI	not failed
MPLRCTKPLGATPATPTAPPTGRKGHQVAINGFITWILVTMSLVVYFLWAFIPTSFLDMVLASYYPDKYWAVAIPAILVMTMVYYLTVHFLLMLYRTDPLTDGFCVAQTNGAVRHESIENLVDVEDGVPPITDIPVSVASRLLFQPWN	failed
MPLVNSHIVEECLPFTSLRLDPEDINLSMGAGYVPDAEIQAISDALETEIAGICTPRFLYALFDAEPAGTCEVGVNGISLKTGSVITPYLKDAAGYVLFVATAGYEFEAFQHRIGSQGDILREFLLDAYGSAIAEAVVREVCRKVESRMFPLGYGVSHPYSPGYCGWHVTQQQLLFSCLPEFPCGVRLSDSSLMSPIKSVSGIIAYGPCIVKRKYGCELCGKADCYKNRNKLNRLEHHHHHH	not failed
MPLVSMKEMLNKALEGKYAVGQFNMNNLEWTQAILAAAEEEKSPVILGVSEGAARHMTGFKTVVAMVKALIEEMNITVPVAIHLDHGSSFEKCKEAIDAGFTSVMIDASHHPFEENVETTKKVVEYAHARNVSVEAELGTVGGQEDDVIAEGVIYADPAECKHLVEATGIDCLAPALGSVHGPYKGEPNLGFAEMEQVRDFTGVPLVLHGGTGIPTADIEKAISLGTSKINVNTENQIEFTKAVREVLNKDQEVYDPRKFIGPGRDAIKATVIGKIREFGSNGKA	not failed
MPMMNLIYLHGFRSSSLSIKGQQLKHYCQAFPYIQVHLPDLNLPPHEVIKKIENMIQSMDQVALIGSSLGGFYATQLVAKYQIPAVLINPAMRPWQLFRQLFSDQTLPYTVCETWTLDEQQLTEMEKIAVPVVQAADKILVLLQQGDEVLDYREAERYYSQPAHPSLIFTDAHGNHAMEDFENKLPLILAFL	failed
MPNDTHAQTGASGPTTLFTNANVLTVDAEFSTAQAIAIRGNRILAVGSDAEVRAAAGDDATVVDLEGKTVLPGFIDAHAHAVSGSVVDAIMDYVGMARFTTVDEVLNHIATRAAKTPAGDWLVFRNFDPAVQEGADALTFAELDPISTDHPIFILNASGHLAYANSRAFEVSGLTNDVPNPPGGEFVRDADGNLTGTIKNNVAFLQIAENYPAMKQVNPVEGLLGLLGKWSQQGLTTVSELSLGALAQSPADVQVMAAAAQSGRMTARLRAYPFYTLGTETWDNAGVKQGDGNALARVAGYKLVADGSNQGFTGLQREPYLNREDRGLAYMEPDELTTTALERAGKGWHLAIHGNGDAAIDNILDTCQALADAGIDMARVRPRIEHCSILHDEQIARMKALGVSASFLIGHVHYWGVAMRDQVFGLEKAQLLDRCKSVEEAGVGFTLHSDFMVTDPNPLHMIEMAVTRRTWKEPDYVLAPQERISVDSAIRAMTSEAAWQLFSDHEIGSLEPGKLADMVILDQDPRKVAPDEIKAIKVLETWMDGQRVFAA	failed
MPNHDYRELAAVFAGGALGALARAALSALAIPDPARWPWPTFTVNVVGAFLVGYFTTRLLERLPLSSYRRPLLGTGLCGGLTTFSTMQVETISMIEHGHWGLAAAYSVVSITLGLLAVHLATVLVRRVRIRR	failed
MPNILYKIDNQYPYFTKNEKKIAQFILNYPHKVVNMTSQEIANQLETSSTSIIRLSKKVTPGGFNELKTRLSKFLPKEVTQYNVELVDNESTISLKNKLHSRSKAAL	not failed
